In US20230406885A1, “CYCLIC PEPTIDES FOR TRAPPING INTERLEUKIN-1 BETA” (MERCK SHARP & DOHME LLC, priority 2022, published 2023):
*1 amine or outer side, *2 acyl side, *3 side chain or, on linkers, in order; H or OH if unused. [ ]: non-standard residue; d: D form. 3AzaPhe4AcPip = (S)-3-(6-(4-acetylpiperazin-1-yl)pyridin-3-yl)-2-aminopropanoic acid, CC(=O)N1CCN(c2ccc(C[C@H](N[*:1])C(=O)[*:2])cn2)CC1; Pro(trans-4-NH2) = O=C([C@@H]1C[C@@H](N[*:3])CN1[*:1])[*:2]; Trp(βS-Me,4-F) = C[C@@H](c1c[nH]c2cccc(F)c12)[C@H](N)C(=O)O; Bip(4'-COOH) = N[C@@H](Cc1ccc(-c2ccc(C(=O)O)cc2)cc1)C(=O)O; hQ = L-homoglutamine, NC(=O)CCC[C@H](N[*:1])C(=O)[*:2]; Phe(4-COOH) = N[C@@H](Cc1ccc(C(=O)O)cc1)C(=O)O; h3Pal(5-CN) = N#Cc1cncc(CC[C@H](N)C(=O)O)c1; Ala(4-THP) = N[C@@H](CC1CCOCC1)C(=O)O; hTyr = N[C@@H](CCc1ccc(O)cc1)C(=O)O; hLys = NCCCCC[C@H](N)C(=O)O; dDab = NCC[C@@H](N)C(=O)O; dNMeA = CN[C@H](C)C(=O)O

Target: Recombinant human IL-1β (BioLegend 579404) (human, UniProt P01584 117-269)
Assay: cell-based or functional assay

Binder	MRC5 IC50 [nM]
cyclo([Bip(4'-COOH)]W[Phe(4-COOH)]G[Pro(trans-4-NH2)][Trp(βS-Me,4-F)]D[dNMeA]G[Bip(4'-COOH)]KL[dS][hTyr]) (SMILES CC(C)C[C@@H]1NC(=O)[C@H](CCCCN)NC(=O)[C@H](Cc2ccc(-c3ccc(C(=O)O)cc3)cc2)NC(=O)CNC(=O)[C@@H](C)N(C)C(=O)[C@H](CC(=O)O)NC(=O)[C@H]([C@@H](C)c2c[nH]c3cccc(F)c23)NC(=O)[C@@H]2C[C@@H](N)CN2C(=O)CNC(=O)[C@H](Cc2ccc(C(=O)O)cc2)NC(=O)[C@H](Cc2c[nH]c3ccccc23)NC(=O)[C@H](Cc2ccc(-c3ccc(C(=O)O)cc3)cc2)NC(=O)[C@H](CCc2ccc(O)cc2)NC(=O)[C@@H](CO)NC1=O) [SEQ ID NO: 69]	0.334
cyclo([3AzaPhe4AcPip]W[Phe(4-COOH)]G[Pro(trans-4-NH2)][Trp(βS-Me,4-F)]D[dNMeA]G[Bip(4'-COOH)]KL[dDab][hTyr]) (SMILES CC(=O)N1CCN(c2ccc(C[C@@H]3NC(=O)[C@H](CCc4ccc(O)cc4)NC(=O)[C@@H](CCN)NC(=O)[C@H](CC(C)C)NC(=O)[C@H](CCCCN)NC(=O)[C@H](Cc4ccc(-c5ccc(C(=O)O)cc5)cc4)NC(=O)CNC(=O)[C@@H](C)N(C)C(=O)[C@H](CC(=O)O)NC(=O)[C@H]([C@@H](C)c4c[nH]c5cccc(F)c45)NC(=O)[C@@H]4C[C@@H](N)CN4C(=O)CNC(=O)[C@H](Cc4ccc(C(=O)O)cc4)NC(=O)[C@H](Cc4c[nH]c5ccccc45)NC3=O)cn2)CC1) [SEQ ID NO: 7]	0.135
cyclo([Bip(4'-COOH)]W[Phe(4-COOH)]G[Pro(trans-4-NH2)][Trp(βS-Me,4-F)]D[dNMeA]G[Bip(4'-COOH)]KL[dA][hTyr]) (SMILES CC(C)C[C@@H]1NC(=O)[C@H](CCCCN)NC(=O)[C@H](Cc2ccc(-c3ccc(C(=O)O)cc3)cc2)NC(=O)CNC(=O)[C@@H](C)N(C)C(=O)[C@H](CC(=O)O)NC(=O)[C@H]([C@@H](C)c2c[nH]c3cccc(F)c23)NC(=O)[C@@H]2C[C@@H](N)CN2C(=O)CNC(=O)[C@H](Cc2ccc(C(=O)O)cc2)NC(=O)[C@H](Cc2c[nH]c3ccccc23)NC(=O)[C@H](Cc2ccc(-c3ccc(C(=O)O)cc3)cc2)NC(=O)[C@H](CCc2ccc(O)cc2)NC(=O)[C@@H](C)NC1=O) [SEQ ID NO: 67]	0.046
cyclo([Bip(4'-COOH)]W[Phe(4-COOH)]G[Pro(trans-4-NH2)][Trp(βS-Me,4-F)]D[dNMeA]G[Bip(4'-COOH)]K[Ala(4-THP)][dA][h3Pal(5-CN)]) (SMILES C[C@@H]1C(=O)NCC(=O)N[C@@H](Cc2ccc(-c3ccc(C(=O)O)cc3)cc2)C(=O)N[C@@H](CCCCN)C(=O)N[C@@H](CC2CCOCC2)C(=O)N[C@H](C)C(=O)N[C@@H](CCc2cncc(C#N)c2)C(=O)N[C@@H](Cc2ccc(-c3ccc(C(=O)O)cc3)cc2)C(=O)N[C@@H](Cc2c[nH]c3ccccc23)C(=O)N[C@@H](Cc2ccc(C(=O)O)cc2)C(=O)NCC(=O)N2C[C@H](N)C[C@H]2C(=O)N[C@@H]([C@@H](C)c2c[nH]c3cccc(F)c23)C(=O)N[C@@H](CC(=O)O)C(=O)N1C) [SEQ ID NO: 64]	0.0182
cyclo([Bip(4'-COOH)]W[Phe(4-COOH)]G[Pro(trans-4-NH2)][Trp(βS-Me,4-F)]D[dNMeA]G[Bip(4'-COOH)][hLys]L[dA][hTyr]) (SMILES CC(C)C[C@@H]1NC(=O)[C@H](CCCCCN)NC(=O)[C@H](Cc2ccc(-c3ccc(C(=O)O)cc3)cc2)NC(=O)CNC(=O)[C@@H](C)N(C)C(=O)[C@H](CC(=O)O)NC(=O)[C@H]([C@@H](C)c2c[nH]c3cccc(F)c23)NC(=O)[C@@H]2C[C@@H](N)CN2C(=O)CNC(=O)[C@H](Cc2ccc(C(=O)O)cc2)NC(=O)[C@H](Cc2c[nH]c3ccccc23)NC(=O)[C@H](Cc2ccc(-c3ccc(C(=O)O)cc3)cc2)NC(=O)[C@H](CCc2ccc(O)cc2)NC(=O)[C@@H](C)NC1=O) [SEQ ID NO: 62]	0.283
cyclo([Bip(4'-COOH)]W[Phe(4-COOH)]G[Pro(trans-4-NH2)][Trp(βS-Me,4-F)]D[dNMeA]G[Bip(4'-COOH)]KL[dDab][hTyr]) (SMILES CC(C)C[C@@H]1NC(=O)[C@H](CCCCN)NC(=O)[C@H](Cc2ccc(-c3ccc(C(=O)O)cc3)cc2)NC(=O)CNC(=O)[C@@H](C)N(C)C(=O)[C@H](CC(=O)O)NC(=O)[C@H]([C@@H](C)c2c[nH]c3cccc(F)c23)NC(=O)[C@@H]2C[C@@H](N)CN2C(=O)CNC(=O)[C@H](Cc2ccc(C(=O)O)cc2)NC(=O)[C@H](Cc2c[nH]c3ccccc23)NC(=O)[C@H](Cc2ccc(-c3ccc(C(=O)O)cc3)cc2)NC(=O)[C@H](CCc2ccc(O)cc2)NC(=O)[C@@H](CCN)NC1=O) [SEQ ID NO: 68]	0.296
cyclo([Bip(4'-COOH)]W[Phe(4-COOH)]G[Pro(trans-4-NH2)][Trp(βS-Me,4-F)]D[dNMeA]G[Bip(4'-COOH)][hQ]L[dA][hTyr]) (SMILES CC(C)C[C@@H]1NC(=O)[C@H](CCCC(N)=O)NC(=O)[C@H](Cc2ccc(-c3ccc(C(=O)O)cc3)cc2)NC(=O)CNC(=O)[C@@H](C)N(C)C(=O)[C@H](CC(=O)O)NC(=O)[C@H]([C@@H](C)c2c[nH]c3cccc(F)c23)NC(=O)[C@@H]2C[C@@H](N)CN2C(=O)CNC(=O)[C@H](Cc2ccc(C(=O)O)cc2)NC(=O)[C@H](Cc2c[nH]c3ccccc23)NC(=O)[C@H](Cc2ccc(-c3ccc(C(=O)O)cc3)cc2)NC(=O)[C@H](CCc2ccc(O)cc2)NC(=O)[C@@H](C)NC1=O) [SEQ ID NO: 63]	0.063
cyclo([Bip(4'-COOH)]W[Phe(4-COOH)]G[Pro(trans-4-NH2)][Trp(βS-Me,4-F)]D[dNMeA]G[Bip(4'-COOH)]KL[dA][h3Pal(5-CN)]) (SMILES CC(C)C[C@@H]1NC(=O)[C@H](CCCCN)NC(=O)[C@H](Cc2ccc(-c3ccc(C(=O)O)cc3)cc2)NC(=O)CNC(=O)[C@@H](C)N(C)C(=O)[C@H](CC(=O)O)NC(=O)[C@H]([C@@H](C)c2c[nH]c3cccc(F)c23)NC(=O)[C@@H]2C[C@@H](N)CN2C(=O)CNC(=O)[C@H](Cc2ccc(C(=O)O)cc2)NC(=O)[C@H](Cc2c[nH]c3ccccc23)NC(=O)[C@H](Cc2ccc(-c3ccc(C(=O)O)cc3)cc2)NC(=O)[C@H](CCc2cncc(C#N)c2)NC(=O)[C@@H](C)NC1=O) [SEQ ID NO: 66]	0.0299
cyclo([Bip(4'-COOH)]W[Phe(4-COOH)]G[Pro(trans-4-NH2)][Trp(βS-Me,4-F)]D[dNMeA]G[Bip(4'-COOH)]K[Ala(4-THP)][dA][hTyr]) (SMILES C[C@@H]1C(=O)NCC(=O)N[C@@H](Cc2ccc(-c3ccc(C(=O)O)cc3)cc2)C(=O)N[C@@H](CCCCN)C(=O)N[C@@H](CC2CCOCC2)C(=O)N[C@H](C)C(=O)N[C@@H](CCc2ccc(O)cc2)C(=O)N[C@@H](Cc2ccc(-c3ccc(C(=O)O)cc3)cc2)C(=O)N[C@@H](Cc2c[nH]c3ccccc23)C(=O)N[C@@H](Cc2ccc(C(=O)O)cc2)C(=O)NCC(=O)N2C[C@H](N)C[C@H]2C(=O)N[C@@H]([C@@H](C)c2c[nH]c3cccc(F)c23)C(=O)N[C@@H](CC(=O)O)C(=O)N1C) [SEQ ID NO: 65]	0.0158
